Measurements as given in the RNAGym collection of RNA variant scans (doi:10.1073/pnas.2313332121).
This sample holds only a part of the variants without activity.

B1: TPR 5TU (parent)
chain: GGAUCUUCUCGAUCUAACAAAAAAGACAAAUCUGCCACAAAGCUUGAGAGCAUCUUCGGAUGCAGAGGCGGCAGCCUUCGGUGGCGCGAUAGCGCCAACGUUCUCAACUAUGACACGCAAAACGCGUGCUCCGUUGAAUGGAGUUUAUCAUG

Variants of: B1
Test: polymerase ribozyme fitness, log enrichment relative to wild type (log ratio); higher = more active; in vitro selection for triplet polymerase activity
Method in brief: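 Mutant libraries of each subunit of a heterodimeric triplet polymerase ribozyme were built by PCR and transcribed. Each library went through one round of in vitro selection in triplicate: annealing with biotinylated primer, partner subunit and triplets, frozen incubation at −7 °C, gel excision of extended constructs, streptavidin-bead capture and RT-PCR. Input and output libraries were Illumina-sequenced; only genotypes with ≥10 input reads and ≥1 read per output were kept. Fitness is log2(genotype enrichment/wild-type enrichment), using inverse-variance-weighted replicate averages.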

| Variant | polymerase ribozyme fitness (log ratio) |
| --- | --- |
| A17U A19U C93G U111G | ≤ -4.2 |
| C18A C35G A39U G84U G126A A150C | ≤ -4.2 |
| C18G A24U U55A C69U G74A | -2.16 |
| C18G A21G C93U C149A | ≤ -4.2 |
| A17U C76U C96U | 0.123 |
| A17U A30U G42A C95A A138G | ≤ -4.2 |
| A17G C85A C129A | -2.88 |
| A17G A24U A26U G58A | -4.02 |
| A17U C54A U90G C96A C118G | ≤ -4.2 |
| A17U C129G | -2.62 |
| A17G C32A C51A U55A A60C G74A G81A U90G C95A | ≤ -4.2 |
| C18G A40U | 0.0147 |
| A17U G65C A89U C93G G112C | ≤ -4.2 |
| A17U G59U C93U C114G | -3 |
| A17G A21U C51U U53A C79U G94A A115G | ≤ -4.2 |
| A17U A24U C36A G59A U77G G83A A98U C105U C116G | ≤ -4.2 |
| A17U A98G | -0.0344 |
| A17U G42A G81C G86U G92C G143C | ≤ -4.2 |
| A17U C85A C96G | -2.34 |
| C18G A39G A40U G67A U90C A97G C99U | ≤ -4.2 |
| A17U G81A G84A | -0.321 |

| Variant | polymerase ribozyme fitness (log ratio) |
| --- | --- |
| A17U A19C C38A G42C U56A U78G A113U C132G A142G U148A | ≤ -4.2 |
| C18G A24U U33A G124A U135A | ≤ -4.2 |
| C18G C35U C75U C95U A120G U134C | -2.68 |
| C18A A19U C76A C85U C99U U104G A110G G143C | ≤ -4.2 |
| A17U G83A G86U A142C | ≤ -4.2 |
| A17U C18A C35U C36G C105A | ≤ -4.2 |
| A17U A26C C76A G86A C96A C105G A115G | ≤ -4.2 |
| A17U G84A C123G | -0.525 |
| A17U U53C G92A C129G | ≤ -4.2 |
| A17G G70A C75G C96U C99G | -4.15 |
| A17U A29U A37C C75U G80U G92A C125U A142C | ≤ -4.2 |
| A17G C72U A147C | -0.924 |
| A17U U104A A106U G141C | ≤ -4.2 |
| C18G A19U A23C G67C G126A G143U U144C | ≤ -4.2 |
| C18A A21G U33G C36A G84A G141C U144A C149U | ≤ -4.2 |
| A17G C85U A115U C125A U144G A150C | ≤ -4.2 |
| C18A G70A G84U U130G | ≤ -4.2 |
| C18G C57A U134G U145A | -3.18 |
| A17U G92A | -2.84 |
| A17U C18G A41G A89C G126A C132U | -3.84 |
| A17U G100U U134A U145G | ≤ -4.2 |

| Variant | polymerase ribozyme fitness (log ratio) |
| --- | --- |
| C18G A49U A119G | -1.83 |
| A17G C27A C35G C75A G86C A142G | ≤ -4.2 |
| A17G U56A G62C G152A | -3.06 |
| A17G C57A A91G C95G A122U | -4.04 |
| C18A G141C | -0.603 |
| A17U U146C | -0.884 |
| A17G G50C A137G U144G | ≤ -4.2 |
| C18A A52G C87A G92C C95A U104A | ≤ -4.2 |
| A17G U53C A73G U139A A142U U146G | ≤ -4.2 |
| A17G A49U G71C C79A A106U | ≤ -4.2 |
| C18G A26U A47U G67C C105G U146A C149G | ≤ -4.2 |
| A17G U53A C79A G141C | ≤ -4.2 |
| A17G A47C C87A G88C A91U U111A | ≤ -4.2 |
| C18G A26C C54A G62A C76G C87A A97C A150U | ≤ -4.2 |
| C18G A30U C35A U61G G62U C93U U111G G124A | ≤ -4.2 |
| A17G G59A G143C | -1.26 |
| A17G U53A | -0.401 |
| A17G A20U C57G G84U C93A C96G A119U G141A | ≤ -4.2 |
| A17G A21C U44A A91C C108U | ≤ -4.2 |
| A17U A49G C85U C116A | -0.0919 |
| A17G A39C A107U | ≤ -4.2 |

| Variant | polymerase ribozyme fitness (log ratio) |
| --- | --- |
| C18A A19C C35A | -2.88 |
| A17U C87A A98G C132U G136A | ≤ -4.2 |
| A17U U31C G50A A64U C69A C99U | ≤ -4.2 |
| A17G G59A C85U G92C C103A A122U | ≤ -4.2 |
| C18G C38G G81C C93G | ≤ -4.2 |
| A17G G133U | -3.47 |
| A17G G50A U55G A89U C93A | ≤ -4.2 |
| A17U U33A C36A C76A G94A G117U C129U | ≤ -4.2 |
| A17U U55A | -1.08 |
| A17U C87U G94C | -3.01 |
| A17U G124U | -0.693 |
| A17G C36G C79A C95U A97U G117U G126U | -4.08 |
| A17U A28U C38U | ≤ -4.2 |
| C18G C27U A37G A47C U55A G65U C85U | -4.19 |
| C18A C38U C51U C96G C116G U148A | ≤ -4.2 |
| A17G A113C | -2.83 |
| C18G C38A C93U C105U A113C | -4.17 |
| A17U A30C C38U U53G G58U C99U C132U | ≤ -4.2 |
| C18A U31G G84C A89U | -2.91 |
| A17U G48C G50U C76A C93A | ≤ -4.2 |
